We go through 18 sequences from the DeepSol protein solubility set.

The nature of the series: soluble on expression in E. coli; label from the status in PepcDB or PDB records.
Take “MDEYNKNPEENDKPEYDMKMEALLKVLNREIPIKAHAHRADDILTAIRIAKEFGLRLTIEHCTEGHLIKDILAEEGVSAIVGSSLTDRSKVELRNLSLKTPGILAKAGVKVAIMTDHPCTPIQYLILCAAMAVREGMDEMEALRAVTINAAELTGIADRVGSIEVGKDADIAIYDGHPFDIRSKVSTTIINGKVVYERKKHERD”: the “soluble on expression in E. coli” value is given as “not soluble”. Regarding “MTRSRRGALARSSEGGPFPTADPVADRALCGWRVRSVIDLPELPLWTRDDRLPDVTIAFGRVTPVESASPGMNWHVVGEGRFRFTVASVGSYRISRGRVITIDPQAGVVASAVRQYLLGTAFGVLCHQRGLLPLHASCVAINGRAVAIAGASGAGKSSLAAALVRLGYPLLGDDVCVIDASEINAPHVLPAIPRLKLWRDVLDTFGLIVDPAARILEGIDKYQAQALADRPPPPPPQVPLPLGVVYYLDQAESPDDEGFHAIRGAERAAALAGAVYRRKMGLAMGLLPQIFTATMTVGALVPGHRLLRHGDLSGLDALARSVAARQEGRGLEHHHHHH”, the “soluble on expression in E. coli” value is reported as “not soluble”. In the case of “MSLQDDIKEKKKLVVAVSPDYAPFEFKALVNGKDTVVGADIDLAKAIAKELGVKLELSSMSFDNVLSSLKTGKADIAISGLSYTKERAQAYDFSEAYYKTENAILIKKSDLNKYTMISSFNNKTKVAVQKGTIEEGLAKNQLKQSNITSLTSMGEAVNELKSGQVDAIDLEKPVAEGYVSQNSDLVLAKVALKTGEGDAKAVALPKDSGQLVKTVNKVIKKLKKEDKYKQFISDAVKLTGQQVDEGHHHHHH” it was “soluble”; in that of “RSLVSVHNEWDPLEEVIVGTAVGARVPTADRSVFAVEYAGDYESQEQIPSGAYPDRVLKETEEELHVLAAELTKLGVTVRRPGPRDHSALIKTPDWETDGFHDYCPRDGLLSVGQTIIETPMALRSRFLESLAYKDLLLEYFASGSRWLSAPKPRLTDDSYAPQAPAGERLTDEEPVFDAANVLRFGTDLLYLVSDSGNELGAKWLQSAVGDTYTVHPCRKLYASTHVDSTIVPLRPGLVLTNPSRVNDENMPDFLRSWENITCPELVDIGFTGDKPHCSVWIGMNLLVVRPDLAVVDRRQTALIRLLEKHGMNVLPLQLTHSRTLGGGFHCATLDVRRTGALETYQF”, “soluble”. For “MGSDKIHHHHHHMRIDLSLKPTPVQFLKRLSEKYGFNIYVKRDDLTELVGSGNKIRKLEYLLWEALKKGATTVFTCGGLQSNHARATAYVSRRYGLKPVLFLRKGEKVLNGNLLLDILLGAEIVEVSPEEYERIDEIFDVHKKMREKKGEKVYVIPEGGSNSLGAFGYFNAVLEMKDQLNLESFDAIVCAVGSGGTIAGLSAGISFLEYHVPVVGVNVTTKNSDYFVGKVKRIISGMEEYGLRVNETVFEVVDDYRGPGYAIPSSEDVEILKEVASIEGIILDPVYTAKAFRGMIEMFRNSEKNVLFIHTGGIFGLFAQSRRLV” the value was “not soluble”; for “MNLFFEKTGATNVAEFSVSEIAGALKRVVEEKFGYVRVRGEISGYRGAHASGHAYFALKDDKARLEAVIWRGIMEKLKFPPEEGMEVIAVGKLTTYPGSSKYQIVIEALEPTGVGALMTLLENRKKKFAEEGLFDEEKKKPLPYMPKIIGVVTSPTGAVIRDIIHRISDRFPLHILVWPVRVQGETSGREVAAAVKGFNVLPLEGLIPKPDLLIVARGGGSLEDLWGFNDEVVVRAVYESSLPVISAVGHETDWTLIDYVADWRAPTPTAAAEKAVPVKIDLEVYVVSLGARLRTGLARYFDFHQQKLRAIIRALPTADQLFALPRRGFDEISSRLERALCVSCDKKRLYFHTLAIRFTPRLLNTEKAQHSAKEYTARLHRAFVHIVEKQRAQLEIAFRLLKSTSYQNILERGFVLALGQNNKPIKRLAQIPEKEQINLRFFDGEISVITQESFFNRSSKSKRIKSKQDDQGTLF”, “not soluble”. For “MSLAFDETRLPDDVERGAQGGPRFKTTVITLSSGFERRNSDWAQTRGEWDVGYGMQDATDLEDVIAFFYARNGRARGFRFKDWTDYVLSRQAIGTTDGSNATFQLFKRYTSGSTSFDRILSKIVTATTQVWVNNVEAPEGGASTSFAIDTTTGMITLGSSLAAQSGTTVEAACQFDVPVRFGSDALDITAEWADAVGAPNIPIVEIRVEGHHHHHH” the value was “soluble”; for “MLYKSSLAVAISALIAGQVSAAGFQVAEHSASGLGRAFSGEAAVADNASVLARNPAAMMLFETAQFSGALSIVDPEVNVDDLSNNQSMKDVAPLQIVPAAYYIRPINDQWAWGLAMFTTYGVATDYPNEIYAGDLAGDTSLISVNLNPNIAYRVNPELSLGFGLDLVAAKAKLTRHKGGLAPFMGGGNPSDNLIGMTGETLALGWNIGALYELDEQNRIGFGYRSRVKLNFDDGEFSSYDSGIATSAVVPGQLKIELPAIWELSGFHQLNEQWAVHYSYQQTDWSSFEELTATSSQCKNGTCFQKIEQYQDNGRWSVGATYTLNTTWTLRAGLAFDEQAGKATLSIPDSDRFWYSAGLTYTLTPQLTMDAGFALVQSRKGSFTEKNQIGQNLQFESEAVAYISALQFNYRFH”, “not soluble”; for “MDLVKDVKRELSFSELKGKRVSIDGYNALYQFLAAIRQPDGTPLMDSQGRVTSHLSGLFYRTINILEEGVIPIYVFDGKPPEQKSEELERRRKAKEEAERKLERAKSEGKIEELRKYSQAILRLSNIMVEESKKLLRAMGIPIVQAPSEGEAEAAYLNKLGLSWAAASQDYDAILFGAKRLVRNLTITGKRKLPNKDVYVEIKPELIETEILLKKLGITREQLIDIGILIGTDYNPDGIRGIGPERALKIIKKYGKIEKAMEYGEISKKDINFNIDEIRGLFLNPQVVKPEEALDLNEPNGEDIINILVYEHNFSEERVKNGIERLTKAIKEAKGASRQTGLDRWF”, “soluble”.

As for “MAHHHHHHMVVSTGEFDHPPFQFRQRHTFNTTPLHDANRFGGRTAYLREIGPVNIKKQGRRFKKDPRTVQFNVDVWCAQQTLRKRWKQRDWEVIEIPFRLVPREQQRVIPELYTDIPQMTDPARNDFSNIRNKVYDREELQGVLFPAAGTMLYPPLQRVDKQAMTLDKYL”, the “soluble on expression in E. coli” value is given as “not soluble”. For “MTQERPSKLSFSIEETVWLNKGQEVKEILAMSLEPDIRIEEKQDHVYIKGGLRLLGEYVPTEEEATLDPTSAIQEQVSFRSVEEVTIDDEGKGSIQHFFPIDVTIPLSRIQKLDDIYVQVDSFDYDLPERSCIQLTADVSISGMTSEPPVSKQKAQSERPAAIDPLPKPPQLEPIPSTFSFEAKKPFVNEEAGAWNEGVQSRQTFKFQPADNENKLEEDVVVSNEEQAHEGEPIEESKADQAKVEESTASVQKQQEENHQQEVTSVANQDETAEGQVNEGNAIEPAMMRGEVDVEHYDSESVEEEENPTKIQLGVQREEVAIDEESQEDLGEDTDEPKGHREENALYLTKMMTNGEEEFSKLKMCIIQENESLDMIAERYDISTSHLIRFNRLTEERVEEGQILYIPVPSHQSKEGLEHHHHHH” the value was “soluble”; for “MFFSNSLHANAAPQHFERIAKILQAKRRAGDFSTCDVKIQLKTGFDMVHSVVICAHSDVFSETFDNQRAPYQPFNMTDFDPDSVRRVFDWMYSGEIDIPETTIADVLAVASYLRVTMLQRQIEQKILNHNGSPIMALNIASARAFSVMDHTMNDLVHGFTEKMTGLGIDEVAKLTANSMIAVMAAVLPMKKKVPLVNMFISWIVCKQPERETINTIIQSLVISDITYDTLYAIRYSLKQYLTNSEIASKSQLTISPSGTIEIKIVPKKESMVSEKSSSLHSVVELPPNQYYRTRSEISAIDKMPDPFVRNLPRTQSASSMIARPRSSGGFPQYFTRSEVEDLQQMTDPFSKSERGMTPTRGPPMGFSSVQCTVKYPGWSKDVMETNKEMYKQCKMNGRYILSEAQTESNAPVFLRPAVGGKVSSSRGALSNLSNSEQNKKYGRGVTQSFSGHSLNDNDPMPKEHDPKVQPSVIISCLSLPTTSPVSVVKPKMTGVKKTDSEIMEINALPSSFNSNSFYTAKTSNTSGHSNDQSAGKSEKSQRSQKSEKSQKLKKPIPQSQYLYPN”, “not soluble”; for “MKLTGKQTWEFENPLFVNSSGTAVGPKEKEGPLGHLFDKSYDEMHCNQKNWEMAERKLMEDAVQSALSKQNLKKEDIDIFLAGDLLNQNVTANYVARHLKIPFLCLFGACSTSMESIAISSALIDGGFAKRALAATSSHNATAERQFRYPTEYGGQKPGTATSTVTGSGAVVLSQQPGGIKITSATVGRVIDLGITDSQDMGSAMAPAAADTIKQHLEDLGRTPDDYDLILTGDLSGVGSPILKDLLKEEGINVGTKHNDCGLMIYTPDQQVFAGGSGCACSAVVTFAHIFKEIEAGRLNRVLVVATGALLSPTIIQQKESIPCIAHGVVFERAERGNALEHHHHHH”, “soluble”. In the case of “MAYSKIRQPKLSDVIEQQLEFLILEGTLRPGEKLPPERELAKQFDVSRPSLREAIQRLEAKGLLLRRQGGGTFVQSSLWQSFSDPLVELLSDHPESQYDLLETRHALEGIAAYYAALRSTDEDKERIRELHHAIELAQQSGDLDAESNAVLQYQIAVTEAAHNVVLLHLLRCMEPMLAQNVRQNFELLYSRREMLPLVSSHRTRIFEAIMAGKPEEAREASHRHLAFIEEILLDRSREESRRERSLRRLEQRKN” it was “soluble”; in that of “MSLVRSKAPLRLGLAGGGSDVSPYSDIYGGLILNATINLYAYCTIEETNSGRIEINAYDAQCCKSYLSMSQLEIDGEASLIKGVYNRIIRDYRLEPKSFKITTYNDAPAGSGLGTSSTMVVCILKAFIEWLSLPLGDYETSRLAYEIERKDLGLSGGKQDQYAAAFGGFNYMEFLQNDLVIVNPLKMKRWIVDELESSMVLYFTGRSRSSAAIINEQKKNTSEGNQTAIEAMHKIKQSAIDTKLALLKGDVGEFARILGEGWENKKKMAGAITNPMIQEAFDVATGAGAMAGKVSGAGGGGFIMFVVEPTRKEEVVRALNNLNGFVMPFQFIDDGAHGWKIYSTDKVQKEGHHHHHH”, “soluble”. In the case of “MGSDKIHHHHHHMPTVHDLDTPSILIDAARAEANIARAQAHADKNGLKLRPHIKTHKLPYWAKKQVAAGAVGITCQKIGEAEVMTDAGLSDIFLPYNILGRAKLQRLKTLHGRVTLSVTSDSMETLEGLAATFTDAGHPLQVLVECDTGMGRCGVQTADQAVALARLIDKAGGLTFGGLMTYPAAGRAAEAEAWLANAKQALAASGLACERISSGGTPDMWRSGEDSVVTEYRPGTYIYLDRYQVAKGVGTLDDCALTVLATVVSHPTATRAILDSGSKALSSDTLGLKDFGELLGAPDARVTGLSEEHGTVTLSGDAKLRIGERVRVVPDHCCVVTNLFNEVNLIDGETVLETLPVAARGKMG” it was “not soluble”; in that of “MAPSSLSQSFDHAAQTPEIFEKVPSRTVGRKATITKEELFQAALNLIGPEKSISSLSLREVAREAGIAPNSFYRHFRDIDELAIDLINRAGLVLRHIIRESRLQASKQNSIIRSSVEVFIQQLDADEGNLSLLLREAYTGSKSYKEAVERQLNFFQQELQEDLIRLERLNHSRLSHPDLVARAITQLVFTMGAKVLDLPINQRTAVAEQTMIMIRMILEGARHLDESKIR”, “soluble”; in that of “MLDPELIGNPEDILEKPALKILGKEVEVYDLSNPFGYGVPLWPYFNDVIIDRYHYHAKSRVLSQIITTTMHVSTHADAPIHVEEGFPSIDEVPIERYMGEGVVVSIPKKKWEVITAEDLEKADPPIEKGDIVIVNTGWHRYWSDSVKYFCYAPGFYKEAGEWFVKKKVKAVGIDTQALDHPLATREAWHHPGADERNSILPWLKEEYKQLTGRDVSEDFPYWEPCHRLLLTHGIMGWENVGGDIDKVTGQRCTIIGLPIRWVKGDGSIVRLVALVEKR”, “soluble”.
